Reference: patent publication US20110014209A1 (MACFARLANE BURNET INSTITUTE FOR MEDICAL RESEARCH AND PUBLIC …, published 2011)

T1: CD81 MBP-LEL (maltose-binding protein fused to the CD81 large extracellular loop, residues 113-201) (human, UniProt P60033 113-201)
T1 construct: range 113-201
T1 sequence: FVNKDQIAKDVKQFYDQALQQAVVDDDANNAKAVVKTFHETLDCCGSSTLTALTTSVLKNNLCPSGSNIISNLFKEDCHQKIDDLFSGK

B1: CD81 MBP-LEL containing the F186S mutation (receptor)
chain: FVNKDQIAKDVKQFYDQALQQAVVDDDANNAKAVVKTFHETLDCCGSSTLTALTTSVLKNNLCPSGSNIISNLSKEDCHQKIDDLFSGK

Columns and labels:
[1] = target: B1; assay: MBP-LEL ELISA, H53 detection
[2] = target: T1, CD81 MBP-LEL (maltose-binding protein …); assay: CD81 MBP-LEL ELISA, purified E2-his proteins, H53 detection
[3] = target: T1, CD81 MBP-LEL (maltose-binding protein …); assay: CD81 MBP-LEL solid-phase assay, intracellular E2
E2Δ12-his mature protein = E2Δ12-his mature protein (hepatitis C virus H77c, UniProt P27958 409-661); assay: MBP-LEL ELISA, H53 detection

Binder	binding result [1]	binding result [2]	binding result [3]	binding result (E2Δ12-his mature protein)
E2Δ3-his mature protein (other) ETHVTGGNAGRTTAGLVGLLTPGAKQNIQLINTNGSWHINSTALNCNESLNTGWLAGLFYQHKFNSSGCPERLASCRRLTDFAQGWGPISYANGSGLDERPYCWHYPPRPCGIVPAKSVCGPVYCFTPSPVVVGTTDRSGAPTYSWGANDTDVFVLNNTRPPLGNWFGCTWMNSTGFTKVCGAPPCGSSGCPTDCFRKHPEATYSRCGSGPWITPRCMVDYPYRLWHYPCTINYTIFKVRMYVGGVEHRLEAACNWTRGERCDLEDRDRSEHHHHHH	no binding	binds		
E2-his mature protein (wild type, residues 384-661, strain H77c) (other) ETHVTGGNAGRTTAGLVGLLTPGAKQNIQLINTNGSWHINSTALNCNESLNTGWLAGLFYQHKFNSSGCPERLASCRRLTDFAQGWGPISYANGSGLDERPYCWHYPPRPCGIVPAKSVCGPVYCFTPSPVVVGTTDRSGAPTYSWGANDTDVFVLNNTRPPLGNWFGCTWMNSTGFTKVCGAPPCVIGGVGNNTLLCPTDCFRKHPEATYSRCGSGPWITPRCMVDYPYRLWHYPCTINYTIFKVRMYVGGVEHRLEAACNWTRGERCDLEDRDRSEHHHHHH	no binding	binds		
E2 glycoprotein expressed from pE1E2 Δ23 (HVR2 and igVR deletions) (other, also called HVR2+igVR) ETHVTGGNAGRTTAGLVGLLTPGAKQNIQLINTNGSWHINSTALNCNESLNTGWLAGLFYQHKFNSSGCPERLASCGSSGCWHYPPRPCGIVPAKSVCGPVYCFTPSPVVVGTTDRSGAPTYSWGANDTDVFVLNNTRPPLGNWFGCTWMNSTGFTKVCGAPPCGSSGCPTDCFRKHPEATYSRCGSGPWITPRCMVDYPYRLWHYPCTINYTIFKVRMYVGGVEHRLEAACNWTRGERCDLEDRDRSELSPLLLSTTQWQVLPCSFTTLPALSTGLIHLHQNIVDVQYLYGVGSSIASWAIKWEYVVLLFLLLADARVCSCLWMMLLISQAEA			binds	
E2Δ23-his mature protein (other) ETHVTGGNAGRTTAGLVGLLTPGAKQNIQLINTNGSWHINSTALNCNESLNTGWLAGLFYQHKFNSSGCPERLASCGSSGCWHYPPRPCGIVPAKSVCGPVYCFTPSPVVVGTTDRSGAPTYSWGANDTDVFVLNNTRPPLGNWFGCTWMNSTGFTKVCGAPPCGSSGCPTDCFRKHPEATYSRCGSGPWITPRCMVDYPYRLWHYPCTINYTIFKVRMYVGGVEHRLEAACNWTRGERCDLEDRDRSEHHHHHH	no binding	binds		
E2Δ2-his mature protein (other) ETHVTGGNAGRTTAGLVGLLTPGAKQNIQLINTNGSWHINSTALNCNESLNTGWLAGLFYQHKFNSSGCPERLASCGSSGCWHYPPRPCGIVPAKSVCGPVYCFTPSPVVVGTTDRSGAPTYSWGANDTDVFVLNNTRPPLGNWFGCTWMNSTGFTKVCGAPPCVIGGVGNNTLLCPTDCFRKHPEATYSRCGSGPWITPRCMVDYPYRLWHYPCTINYTIFKVRMYVGGVEHRLEAACNWTRGERCDLEDRDRSEHHHHHH	no binding			
B1				no binding
